Data set [1] is described as follows: Doxorubicin loading (HPLC of non-entrapped drug). To be noted: mean ± SD, n = 3. Format: physicochemical. The procedure:
(5) Preparation of doxorubicin-loaded nanoparticles 160 mg HSA were dissolved in 4 ml purified water and the solution was filtered through a 0.22 μm cellulose acetate membrane filter (Schleicher & Schuell, Dassel, Germany). An aliquot (500 μl) of this solution was added to 200 μl of a 0.5% (w/v) aqueous stock solution of doxorubicin. To this mixture, 300 μl of purified water were added. In order to adsorb doxorubicin to human serum albumin in solution, the mixture was incubated under stirring (550 rpm) for 2 h at room temperature. For the preparation of nanoparticles by desolvation, 3 ml ethanol (96%, v/v) were added continuously (1 ml/min) with a tubing pump (Ismatec IPN, Glattbrugg, Switzerland). After protein desolvation, an aliquot of 11.75 μl 8% glutaraldehyde solution was added to induce particle crosslinking (corresponding to 100% stoichiometric protein crosslinking). […] The nanoparticle content was determined by gravimetry. […] The content of entrapped doxorubicin was calculated from the difference between total doxorubicin and unbound drug. For the quantification of doxorubicin, a Merck Hitachi D7000 HPLC system equipped with a LiChroCART® 250-4 LiChrospher®-100 RP-18 column (Merck, Darmstadt, Germany) was used. […] Doxorubicin was quantified by UV (250 nm) and fluorescence detection (excitation 560 nm, emission 650 nm).

Data set [2] deals with M21 cells. Nature of the data set: Cellular uptake and intracellular distribution, confocal laser scanning microscopy. Format: cell-based. To be noted: 10 ng/μl, 4 h at 37° C., CLSM. The protocol: Cellular uptake and intracellular distribution: The cellular uptake and intracellular distribution of these nanoparticulate formulations are shown by confocal laser scanning microscopy (CLSM). αvβ3 integrin-positive M21 melanoma cells are incubated with NP-Dox-DI17E6, with NP-Dox-IgG, or free Doxorubicin (FIG. 5). […] The overlay of the different fluorescence channels (FIG. 6B-D) verifies the intracellular uptake of NP-Dox-DI17E6 (FIG. 6A).
FIG. 5: Cellular uptake and intracellular distribution of nanoparticles studied by confocal laser scanning microscopy (CLSM). M21 cells were cultured on glass slides and treated with 10 ng/μl of the different nanoparticle formulations (referred to DI17E6 concentration or equivalent amount of control nanoparticles) for 4 h at 37° C. The green autofluorescence of the nanoparticles was used for detection and the red autofluorescence of doxorubicin. The cell membranes were stained with Concanavalin A AlexaFluor 350 (blue). Pictures were taken within inner sections of the cells. […]
Cellular uptake and intracellular distribution of the nanoparticles were studied by confocal laser scanning microscopy. […] (concentrations are calculated referred to DI17E6 or equivalent NP amounts as described in 2.5). […] Nanoparticles were detected at 488/520 nm. Doxorubicin was detected by red fluorescence at 488/590 nm.

The test system of data set [3] is αv-negative M21L cells. The data set is described as follows: MTT cell viability assay. The settings on record: MTT, reduce cell viability by 50%, M21L cells.
Description: Cell viability was assessed using the 3-(4,5-dimethylthiazol-2-yl)-2,5-diphenyltetrazolium bromide (MTT) dye reduction assay [27] modified as described before [28].
Data set [4] can be described thus: Zetapotential by Laser Doppler microelectrophoresis. Format: physicochemical. The settings on record: mean ± SD; n = 3; 100% crosslinking. The protocol: Nanoparticles were analyzed with regard to particle diameter and polydispersity by photon correlation spectroscopy (PCS) using a Malvern Zetasizer 3000HSA (Malvern Instruments Ltd., Malvern, UK). The zetapotential was measured with the same instrument by Laser Doppler microelectrophoresis. Prior to both measurements the samples were diluted with filtered (0.22 μm) purified water. Particle content was determined by microgravimetry. For this purpose 50.0 μl of the nanoparticle suspension was pipetted into an aluminium weighing dish and dried for 2 h at 80° C. After 30 min of storage in an exsiccator the samples were weighed on a micro balance (Sartorius, Germany).

Bounds are passed on as bounds.

Consider NP-Dox-DI17E6, for which the Drug loading in data set [1] came out at 56.7 ± 2.9 µg/mg. The “Cellular uptake and intracellular distribution” value in data set [2] was “reaches the inner part of the cells”. The “IC-50 M21L” value in data set [3] is more than 100 ng/mL. In addition, the Zetapotential in data set [4] was −40.3 ± 3.1 mV.

For the origin of these results see patent publication US20120263739A1, “ANTI INTEGRIN ANTIBODIES LINKED TO NANOPARTICLES LOADED WITH CHEMOTHERAPEUTIC AGENTS” (MERCK PATENT GMBH, priority 2009, published 2012).
